Measured values from article doi:10.1101/2021.07.29.454387 (bioRxiv, 2021).

Tests used:
Test in all cases: ITC
[1] = biological target: T1, PDZ domain of human PDLIM2 (residues 1-84) (human, UniProt Q96JY6 1-84)
T1 sequence: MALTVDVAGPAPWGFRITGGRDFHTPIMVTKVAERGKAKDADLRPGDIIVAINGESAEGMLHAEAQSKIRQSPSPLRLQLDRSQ

[2] = biological target: T2, PDZ domain of human PDLIM5 (residues 1-84) (human, UniProt Q96HC4 1-84)
T2 sequence: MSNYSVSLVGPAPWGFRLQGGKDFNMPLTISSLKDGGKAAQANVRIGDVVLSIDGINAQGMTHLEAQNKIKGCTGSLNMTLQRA

[3] = biological target: PDLIM7 PDZ domain (1-84) H63A (human, UniProt Q9NR12 1-84, H63A)
[4] = biological target: PDLIM7 PDZ domain (1-84) P11E (human, UniProt Q9NR12 1-84, P11E)
[5] = biological target: PDZ domain of human PDLIM7 (residues 1-84) (human, UniProt Q9NR12 1-84)
[6] = biological target: PDLIM7 PDZ domain (1-84) W14Y (human, UniProt Q9NR12 1-84, W14Y)
[7] = biological target: T3, PDZ domain of human PDLIM3 (residues 1-84) (human, UniProt Q53GG5 1-84)
T3 sequence: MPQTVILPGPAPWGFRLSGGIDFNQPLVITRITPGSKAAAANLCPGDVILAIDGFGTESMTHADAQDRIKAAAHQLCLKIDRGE

[8] = biological target: T4, PDZ domain of human PDLIM4 (residues 1-84) (human, UniProt P50479 1-84)
T4 sequence: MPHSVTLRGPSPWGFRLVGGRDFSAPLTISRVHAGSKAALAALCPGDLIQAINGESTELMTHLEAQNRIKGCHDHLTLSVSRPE

[9] = biological target: T5, PDZ domain of human PDLIM1 (residues 1-84) (human, UniProt O00151 1-84)
T5 sequence: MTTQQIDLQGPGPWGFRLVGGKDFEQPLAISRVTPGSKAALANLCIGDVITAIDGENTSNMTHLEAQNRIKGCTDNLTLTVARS

[10] = biological target: PDLIM7 PDZ domain (1-84) Q67A (human, UniProt Q9NR12 1-84, Q67A)

Measured: binding result

Sequence of PDZ domain of human PDLIM7 (residues 1-84) (Q9NR12 1-84): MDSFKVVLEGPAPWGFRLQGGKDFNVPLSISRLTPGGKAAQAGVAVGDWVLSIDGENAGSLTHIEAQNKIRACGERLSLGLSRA
Sequence of PDLIM7 PDZ domain (1-84) P11E (Q9NR12 1-84 P11E): as the sequence (Q9NR12 1-84) above, with P11E counted along it
Sequence of PDLIM7 PDZ domain (1-84) Q67A (Q9NR12 1-84 Q67A): as the sequence (Q9NR12 1-84) above, with Q67A counted along it
Sequence of PDLIM7 PDZ domain (1-84) H63A (Q9NR12 1-84 H63A): as the sequence (Q9NR12 1-84) above, with H63A counted along it
Sequence of PDLIM7 PDZ domain (1-84) W14Y (Q9NR12 1-84 W14Y): as the sequence (Q9NR12 1-84) above, with W14Y counted along it

B1: SNX17 C-terminal peptide (457-470) used for ITC (peptide)
peptide: HGNFAFEGIGDEDL
binds: all assays above

B2: SNX17 C-terminal peptide E468R (peptide)
peptide: HGNFAFEGIGDRDL
binds: [5]
